This assay concerns the target CD16a (UniProt P08637 17-208). Briefly: SPR. For orientation: Surface plasmon resonance follows binding to a sensor surface in real time, without labels.

Chain of CD16a (P08637 17-208): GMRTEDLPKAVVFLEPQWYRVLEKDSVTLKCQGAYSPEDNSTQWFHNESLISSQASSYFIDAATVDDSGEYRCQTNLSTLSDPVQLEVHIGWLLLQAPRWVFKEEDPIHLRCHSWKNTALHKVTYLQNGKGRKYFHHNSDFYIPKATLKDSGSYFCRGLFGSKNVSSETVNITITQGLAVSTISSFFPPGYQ

B1: Anti-CD16 nanobody (VHH)
VHH: EVQLTESGGEDVQAGGSLRLSCSASGLTFSSYNMGWFRRAPGKEREFVASITWSGRDTFYADSVKGRFTISRDNAKNTVYLQMSSLKPEDTATYYCAANPWPVAAPRSGTYWGEGTQVTV
In general, Kd refers to the concentration at which binding is half-saturated. The low end stands for a tighter complex, the high end for a looser complex. Molecule B1 had a Kd of 2.6 nM.

Values taken from patent US20210061922A1 (published 2021).
